For two substances, activity and activity (fold over spontaneous dissociation) results are on record in patent US6309839.

Data set [1] deals with T1, Dda helicase (bacteriophage T4?) (UniProt P32270).
T1 sequence: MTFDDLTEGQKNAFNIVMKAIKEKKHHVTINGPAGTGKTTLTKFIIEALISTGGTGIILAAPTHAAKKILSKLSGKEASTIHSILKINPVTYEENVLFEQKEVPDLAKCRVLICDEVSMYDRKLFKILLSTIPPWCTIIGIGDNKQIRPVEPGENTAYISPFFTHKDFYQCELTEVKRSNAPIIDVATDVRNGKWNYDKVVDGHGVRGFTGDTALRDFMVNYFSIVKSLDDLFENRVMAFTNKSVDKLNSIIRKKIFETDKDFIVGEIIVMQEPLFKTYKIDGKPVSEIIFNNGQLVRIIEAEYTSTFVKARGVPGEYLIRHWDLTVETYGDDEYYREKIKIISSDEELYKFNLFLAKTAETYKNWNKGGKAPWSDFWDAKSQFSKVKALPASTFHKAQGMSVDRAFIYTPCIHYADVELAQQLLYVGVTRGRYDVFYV
As to conditions: biotin at position 60, streptavidin-bound; streptavidin displacement rate at 1 uM Dda, preincubated with DNA, 5 mM ATP, Mg2+.

Data set [2] deals with T2, gp41 helicase (bacteriophage T4?) (UniProt P04530).
T2 sequence: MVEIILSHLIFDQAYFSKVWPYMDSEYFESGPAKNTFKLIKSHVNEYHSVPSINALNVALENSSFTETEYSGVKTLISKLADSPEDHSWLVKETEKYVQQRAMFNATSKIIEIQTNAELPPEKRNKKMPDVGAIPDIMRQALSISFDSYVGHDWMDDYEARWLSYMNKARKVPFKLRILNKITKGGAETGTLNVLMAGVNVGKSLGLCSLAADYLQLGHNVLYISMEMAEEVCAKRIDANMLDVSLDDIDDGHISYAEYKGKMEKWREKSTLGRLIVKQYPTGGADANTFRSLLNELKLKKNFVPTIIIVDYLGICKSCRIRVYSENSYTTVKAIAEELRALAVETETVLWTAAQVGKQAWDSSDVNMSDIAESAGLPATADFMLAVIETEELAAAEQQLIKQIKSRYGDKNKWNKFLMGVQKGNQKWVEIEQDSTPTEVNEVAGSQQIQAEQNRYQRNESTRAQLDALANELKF
As to conditions: biotin at position 60, streptavidin-bound; streptavidin displacement rate at 4 uM gp41; 5 mM ATP, 12.5 mM Mg(OAc)2, 150 mM KOAc, pH 7.5, 37 C; none without ATP.

Data set [3] deals with NS3 helicase (full length) (Hepatitis C virus) (UniProt P26663). As to conditions: biotin at position 2, streptavidin-bound; streptavidin displaced from 5' end; 10 nM NS3, 100 nM oligonucleotide.
Sequence of NS3 helicase (full length) (Hepatitis C virus) (P26663 1027-1657): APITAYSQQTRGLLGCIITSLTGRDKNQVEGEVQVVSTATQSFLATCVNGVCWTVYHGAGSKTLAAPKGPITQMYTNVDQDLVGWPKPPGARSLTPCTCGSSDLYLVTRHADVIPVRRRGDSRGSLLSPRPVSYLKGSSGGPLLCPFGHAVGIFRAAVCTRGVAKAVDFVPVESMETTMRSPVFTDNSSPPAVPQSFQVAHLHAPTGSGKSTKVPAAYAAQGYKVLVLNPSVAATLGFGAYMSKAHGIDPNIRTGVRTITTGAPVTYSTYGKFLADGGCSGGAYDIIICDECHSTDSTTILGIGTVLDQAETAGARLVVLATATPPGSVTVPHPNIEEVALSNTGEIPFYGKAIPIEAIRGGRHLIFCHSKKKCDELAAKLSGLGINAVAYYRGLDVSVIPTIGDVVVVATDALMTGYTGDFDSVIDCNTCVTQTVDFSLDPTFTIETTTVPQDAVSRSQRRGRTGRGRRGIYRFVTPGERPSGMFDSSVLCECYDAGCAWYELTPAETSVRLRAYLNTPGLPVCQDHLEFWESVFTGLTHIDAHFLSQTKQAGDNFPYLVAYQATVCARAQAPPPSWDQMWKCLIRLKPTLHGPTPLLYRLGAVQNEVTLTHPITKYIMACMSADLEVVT

Take 3'-bio-61-mer (called 62-mer in text): the values for the activity in data set [1] and in data set [2] were 7.9 s⁻¹ and 0.17 min⁻¹, respectively.

On to 5'-bio-60-mer, for which the activity (fold over spontaneous dissociation) in data set [3] is > 100.
